Assay: soluble on expression in E. coli; label from the status in PepcDB or PDB records

Sequence | soluble on expression in E. coli
MSEESQAFQRQLTALIGYDVTDVSNVHDDELEFTRRGLVTPRMAEVASRDPKLYAMHPWVTSKPLPEYLWKKIANNCIFIVIHRSTTSQTIKVSPDDTPGAILQSFFTKMAKKKSLMDIPESQSEQDFVLRVCGRDEYLVGETPIKNFQWVRHCLKNGEEIHVVLDTPPDPALDEVRKEEWPLVDDCTGVTGYHEQLTIHGKDHESVFTVSLWDCDRKFRVKIRGIDIPVLPRNTDLTVFVEANIQHGQQVLCQRRTSPKPFTEEVLWNVWLEFSIKIKDLPKGALLNLQIYCGKAPALSSKASAESPSSESKGKVQLLYYVNLLLIDHRFLLRRGEYVLHMWQISGKGEDQGSFNADKLTSATNPDKENSMSISILLDNYCHPIALPKHQPTPDPEGDRVRAEMPNQLRKQLEAIIATDPLNPLTAEDKELLWHFRYESLKHPKAYPKLFSSVKWGQQEIVAKTYQLLARREVWDQSALDVGLTMQLLDCNFSDENVRAIAVQKLESLEDDDVLHYLLQLVQAVKFEPYHDSALARFLLKRGLRNKRIGHFLFWFLRSEIAQSRHYQQRFAVILEAYLRGCGTAMLHDFTQQVQVIEMLQKVTLDIKSLSAEKYDVSSQVISQLKQKLENLQNSQLPESFRVPYDPGLKAGALAIEKCKVMASKKKPLWLEFKCADPTALSNETIGIIFKHGDDLRQDMLILQILRIMESIWETESLDLCLLPYGCISTGDKIGMIEIVKDATTIAKIQQSTVGNTGAFKDEVLNHWLKEKSPTEEKFQAAVERFVYSCAGYCVATFVLGIGDRHNDNIMITETGNLFHIDFGHILGNYKSFLGINKERVPFVLTPDFLFVMGTSGKKTSPHFQKFQDICVKAYLALRHHTNLLIILFSMMLMTGMPQLTSKEDIEYIRDALTVGKNEEDAKKYFLDQIEVCRDKGWTVQFNWFLHLVLGIKQGEKHSAHHHHHH | soluble
MSLSEELQQKLRDQLWEVANRLRGNMSASDFMYFTLGFIFYKYLSEKIEKYANNALADDDITFKELWETDDADAIELQEEAKNQCLENIGYFIEPQFLFSSVIEAIKRKENILPMLERSLKRIEDSTLGQDSEDDFGGLFSDIDLASPKLGKTADDKNTLVSNVLLALDDINFGLEASQEIDILGDAYEYMISQFAAGAGKKAGEFYTPQEVSRILAEIVAIGHQRLRNVYDPTCGSGSLLLRAASIGNAVDIYGQEKNPTTYNLARMNMLLHGIRFSNFKIENGDTLEWDAFGDTQFDAVVANPPFSAEWSAADKFNTDDRFSKAGRLAPRKTADYAFILHMIYHLNEGGTMACVAPHGVLFRGNAEGVIRRFLIEKKNYVDAIIGLPANIFYGTSIPTCILVFKKCRKEDDNILFIDASKEFEKVKTQNKLREQHIQKIVETYRDRKEIEKYSHLASLQEIAENDYNLNIPRYVDTFEEEEPIDIKAVMAEIKELEAKRAELDKEIEVYLKELGIVEEGHHHHHH | soluble
MGSDKIHHHHHHMLSDKQKKHILVNRDGLKYYTVEGLEKVHEEMLRLLLIIDTIAKENNIPYWIDGGSLIGIVRHKGFIPWDDDLDISLLKKDYLRLIKEISMYCEMHNDVALFYNEPLVEHTCNFFASKKVFSRTQGSCVLVPVKIDIRPVNCIVKNKDNVIENNIYRDTANYIIFGKSYGYMKKTLSHKNEQMDFLEYYNYKYGLVDSGLENVIMVHPYFEFSNTFELTYNDLFPLKMLQFENMLLPVPNNYDYLLKELYGDYMSYPNICHRAPVACQIYQRQLKDNRFNLCLSMFKHTNRGLLYRMRIILVQIRLLGVFEYMKIKIYE | not soluble
MYTEYQPSRLLAPYIDNYWEFKGTPEYGMRIHILPDGCTDFIFTLGEAVSKVKEETLVMQPYRSYFVGPMTKYSELVTYAEFVHQFGVRFLPCGLSGFTKLPLHEFANYRISTNEMQAVFDSTFIERLCEQNDVRGRIQVVEEYLLAYLAHNYQPVDTQVAAAVNIINQSAGKRSVRSLMDEVCLCQRHFERKFKHNTGFTPKEYSRIVKFKNAVELLRNTTSVNLLTTAIDAGYYDLAHFSKEIKTLSGNTPSSFLSLTVPEDITLTYIEP | soluble
MGSDKIHHHHHHMDIIEELRAYREKDIPYSRVLSSMCTVPHPVAVEAHRMFIETNLGDPGIFRGTVELEAKLMRLIGDILHCETPAGYICSGGTEANIQGIRAARNVQKKENPNIVIPKTAHFSFEKIGDILGVKIKRAGVDEEYKVDVGQVEDLMDENTVAIVGIAGTTELGQIDPIVELSKLAEERQVELHVDAAFGGLVIPFMDNPYPFDFQNRGVSSITIDPHKMGMATIPAGGIIFRNESYLRALEVETPYLTSKTQFTLTGTRPGTGVASAYAVLKSLGFEGMREVVKNCLKNTRILVEEMRDLGFEPVIEPVMNVVSFRTDEAERIKEELYRMRWVISTIREPKAIRFVVMPHVTEEVIKNFISDFRKVLRR | not soluble
EALYVAGYLALYSKDEGELNITPEIVRSALPPTSKIPINIDHRKDCVVGEVIAIIEDIRGPFFLGIVRCPQLHAVLFEAAHSNFFGNRDSVLSPLERALYLVTNYLPSVSLSSKRLSPNEIPDGNFFTHVALCVVGRRVGTVVNYDCTPESSIEPFRVLSMESKARLLSLVKDYAGLNKVWKVSEDKLAKVLLSTAVNNMLLRDRWDVVAKRRREAGIMGH | soluble
MSLTNEPLASRMRPNNIDEIISQEHLVGPKGIIRRMVETKRLSSMIFYGPPGIGKTSIAKAISGSTQFKFRQLNAVTNTKKDMQLIVEEAKMSGQVILLLDEIHRLDKAKQDFLLPHLENGKIVLIGATTSNPYHAINPAIRSRAQIFELYPLDENDVRVSLDRALNDSERGLASYNPKVDEDAMAYFTTQSQGDVRSALNALELAVLSSENIDQQRHITLQDAKDCLQKGAFVSDKDGDMHYDVMSAFQKSIRGSDVNAALHYLARLIEAGDLPTIVRRLLVISFEDVGLASPSAGQRTLAAIESAERLGFPEARIPLSQAVIELCLSPKSNSGINAIDAALSDIRKGHVGQIPDHLKDGHYAGAKELGRSIGYKYPHNYENGFVTQQYLPMKLKNRIYYEPKTTSKSEQQFKAVFDHINQSQQKNKEGHHHHHH | not soluble
IPLARTVRCNCIHIDDGPVRMRAIGKLEIIPASLSCPRVEIIATMKKNDEQRCLNPESKTIKNLMKAF | soluble
MSALNELLHDDAIDLNAHAETWQEAIAQAGALLEKTGAITSAYTESMISSVEEQGPYIVVAPGFAFAHARPSEAVKRTAIAWTRLDSPVEFHHSSNDPVTLVVALAAQDDQAHTAAMREIAQVLGSRRRDLDTVATVAELRGVLEASKRRKSRGVAGGATHVTAQDSVESKGKILTVCGNGLGTSLFLKNTLDQVLDTWGWGPFVSTEATDTISAKGRAKEADFLLTSEEIARTLGDVGVPVYVISNFTSEDEIDAALRELYDV | not soluble
MGSDKIHHHHHHMNITIVGAGATGGYFGARLAASGLNVTFLVREKRAAQLREKGLVIKSVVEDLTLEAPQIAINAEDIPACDLVLLGLKNYQLAASLPQLKVLVNRGAKILPFLNGVEHFEILAKELGQENVLGGVCKIISTLDSEGTIHHTSKVHQIIFGELEPSGKEFCLRLEQAMAKANFKVKYTENILNEIWSKYAFITVFSGVTSAGDLTTDQICAHEATVKVYRRSLEEMKSLADAYGAALSEDFVEQNVEGLPKYAKGSTSSMHQDMRKGLLLEVESLQGAAIRLAGRKNMELPTIETLYGLIKPYEMGSIG | not soluble
MYNDEELITVQPEAFKALTPSKKFNETSNKLLDLAYSDDGNNLIVSAEDVVLVYDLRDGSKGKSIECKKYGVNCLEYLDTVKCVHSGPNDTTIRLLHLQKKSYVRYFDGHRMPVNFIRTNPKDREKFLSSSVDGEIRMFDTRTFENYGCLLAGHTPLIAFDPDGILFAVATKSDTIKLFDMRSFDLGPFQSFIITKTDNDEWSDIEFSPCGKFILISTTAGSVKWIDAFDGTLIHSFSQHKNPNVSFF | not soluble
VYDNDIDTGAKNTLNLDEELQLGELSLDTIRSLEKLAPFGMDNKKPVFWLHDITVTQARTMGQNGAHLKFKVKQGKASFDVVAFNKGHLLQEFQQAQGLELAVTLSVNVWNGQTTLQ | not soluble
MHDFVGFMNKISQINRDLDKYDHTINQVDSLHKRLLTEVNEEQASHLRHSLDNFVAQATDLQFKLKNEIKSAQRDGIHDTNKQAQAENSRQRFLKLIQDYRIVDSNYKEENKEQAKRQYMIIQPEATEDEVEAAISDVGGQQIFSQALLNANRRGEAKTALAEVQARHQELLKLEKSMAELTQLFNDMEELVIEQQ | soluble
GMKIDGETRSARKDREIIQAATAAFISKGYDGTSMEEIATKAGASKQTVYKHFTDKETLFGEVVLSTASQVNDIIESVTTLLSEAIFMEGGLQQLARRLIAVLMDEELLKLRRLIIANADRMPQLGRAWYEKGFERMLASTASCFQKLTNRGLIQTGDPYLAASHLFGMLLWIPMNEAMFTGSNRRSKAELERHADASVEAFLAVYGVQPK | soluble
MGNKITVEVTVYAAIEKVWKYWNEPAHIMKWCQASPEWHVPAAQNDLKAGGTFTTTMAAKDGSMSFDFGGVYDQVKTNDLIEYTIGDGRKVRIVFTHTGDTTNIVESFDPEETNPRELQQSGWQAILNSFKSYTENNLEHHHHHH | soluble
MGSDKIHHHHHHMNRLRYSVNLSYEILDPTGDFLLIVEAAKTARQSVVSERLALTPPAHAARYTDPLGNRLLRIRANKGPLAIRYEAVVDIDHRLDDGMSLTEVPVAELPFDVLSYLAPSRYCESDRMMEFAMREFGSMRPGYSRVYAIREWVRNHVRFLSRSTNERTSAIDTIVERTGVCRDFSHLMIAICRALSIPARMSSSVDYGADPALGAPDFHAVVEVFLSGGWYLLDPSGVSIPTGLLRIGTGRDAADIPFAAIFGKVESKRPFIEIQPIADPVAGIGLPLATTSAISTW | not soluble
MIQRFIELGEGYSDIYELIALAKANRHRLSGFFVFHTVKKGQAVVSLAIVLHPTDPGDFQPLYICREGIPDPSVKPNKRYELFMETAKELGMDVIHLDVKPSTMFAELDLYYQHLIGIMRMNRFIPPLQ | not soluble
MKYTITVMSGKGGVGKSTVAVNLAVSLARKGLKVGLIDADINGPDDPKLLGVSDLKLYADEEGIIPAETRYGVRVVSMGFLIPTEDTPIIWRGSLMHKAIQQFLEDVNWKDTDVVVLDMPPGTGDVALSVAQLIPESNGVVIVVTPQDVALLDAKKAINFAKQLKLPVLGIIENMSGFVCPHCGNVTYIFKNGGGEKSAKEYNLPFLGKIPLIPEIAENGDNGIPAVVINDKIREIFDSITDQILKEAQIENIKQLEHHHHHH | not soluble
MSLNLTVSDVVELMGDAVVQTGEASLQTQPVEWVSVIETPVENFVRENELVLTTGIGCGEDEERFLQFVHDIAASNAAALAIAMGRFVKHIPDRVLHYASTHGLILLEIPWELRFADLIQSVLLQMEQRKQKEIEQAESLRKQLLEMEGHHHHHH | soluble
MFFSNSLHANAAPQHFERIAKILQAKRRAGDFSTCDVKIQLKTGFDMVHSVVICAHSDVFSETFDNQRAPYQPFNMTDFDPDSVRRVFDWMYSGEIDIPETTIADVLAVASYLRVTMLQRQIEQKILNHNGSPIMALNIASARAFSVMDHTMNDLVHGFTEKMTGLGIDEVAKLTANSMIAVMAAVLPMKKKVPLVNMFISWIVCKQPERETINTIIQSLVISDITYDTLYAIRYSLKQYLTNSEIASKSQLTISPSGTIEIKIVPKKESMVSEKSSSLHSVVELPPNQYYRTRSEISAIDKMPDPFVRNLPRTQSASSMIARPRSSGGFPQYFTRSEVEDLQQMTDPFSKSERGMTPTRGPPMGFSSVQCTVKYPGWSKDVMETNKEMYKQCKMNGRYILSEAQTESNAPVFLRPAVGGKVSSSRGALSNLSNSEQNKKYGRGVTQSFSGHSLNDNDPMPKEHDPKVQPSVIISCLSLPTTSPVSVVKPKMTGVKKTDSEIMEINALPSSFNSNSFYTAKTSNTSGHSNDQSAGKSEKSQRSQKSEKSQKLKKPIPQSQYLYPN | not soluble
